In the supplement of paper PMC10567573:

B1: PRPH (parent)
chain: DEIEFLKKLHEEELRDLQVSVESQ

Variants of: B1
Assay: protein stability index of a GFP-peptide fusion (GPS, HEK-293T) (PSI 1-6); higher = more stable
Settings: c terminus: a fixed tail appended
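Also: lentivirally expressed fusions sorted by FACS into six bins by GFP to DsRed ratio, PSI derived from sequencing read proportions per bin multiplied by bin number.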

Variant	protein stability index
DEIEFLKKLFEEELRDLQVSVESQ [H10F]	3.47
DEIEFLKKLCEEELRDLQVSVESQ [H10C]	4.56
DEIEFLKKLYEEELRDLQVSVESQ [H10Y]	4.18
DEIEFLKKLEEEELRDLQVSVESQ [H10E]	5.23
DEIEFLKKLTEEELRDLQVSVESQ [H10T]	4.95
DEIEFLKKLAEEELRDLQVSVESQ [H10A]	4.42
DEIEFLKKLMEEELRDLQVSVESQ [H10M]	3.88
DEIEFLKKLIEEELRDLQVSVESQ [H10I]	3.37
DEIEFLKKLSEEELRDLQVSVESQ [H10S]	5.18
DEIEFLKKLQEEELRDLQVSVESQ [H10Q]	5.03
DEIEFLKKLNEEELRDLQVSVESQ [H10N]	4.16
DEIEFLKKLKEEELRDLQVSVESQ [H10K]	4.78
DEIEFLKKLLEEELRDLQVSVESQ [H10L]	2.52
DEIEFLKKLWEEELRDLQVSVESQ [H10W]	3.54
DEIEFLKKLPEEELRDLQVSVESQ [H10P]	5.1
DEIEFLKKLVEEELRDLQVSVESQ [H10V]	3.52
DEIEFLKKLDEEELRDLQVSVESQ [H10D]	5.25
DEIEFLKKLREEELRDLQVSVESQ [H10R]	4.87
DEIEFLKKLGEEELRDLQVSVESQ [H10G]	4.64
DEIEFLKKLHEEELVDLQVSVESQ [R15V]	4.94
DEIEFLKKLHEEELHDLQVSVESQ [R15H]	4.39
DEIEFLKKLHEEELSDLQVSVESQ [R15S]	4.8
DEIEFLKKLHEEELYDLQVSVESQ [R15Y]	4.58
DEIEFLKKLHEEELQDLQVSVESQ [R15Q]	4.66

Variant	protein stability index
DEIEFLKKLHEEELMDLQVSVESQ [R15M]	4.58
DEIEFLKKLHEEELPDLQVSVESQ [R15P]	4.98
DEIEFLKKLHEEELFDLQVSVESQ [R15F]	4.15
DEIEFLKKLHEEELADLQVSVESQ [R15A]	5.18
DEIEFLKKLHEEELEDLQVSVESQ [R15E]	4.83
DEIEFLKKLHEEELNDLQVSVESQ [R15N]	4.91
DEIEFLKKLHEEELKDLQVSVESQ [R15K]	4.59
DEIEFLKKLHEEELTDLQVSVESQ [R15T]	4.51
DEIEFLKKLHEEELWDLQVSVESQ [R15W]	3.91
DEIEFLKKLHEEELDDLQVSVESQ [R15D]	5.45
DEIEFLKKLHEEELIDLQVSVESQ [R15I]	4.79
DEIEFLKKLHEEELGDLQVSVESQ [R15G]	4.28
DEIEFLKKLHEEELCDLQVSVESQ [R15C]	4.53
DEIEFLKKLHEEELLDLQVSVESQ [R15L]	4.38
DEIEFLAKLHEEELRDLQVSVESQ [K7A]	4.11
DEIEFLRKLHEEELRDLQVSVESQ [K7R]	4.59
DEIEFLPKLHEEELRDLQVSVESQ [K7P]	5.04
DEIEFLLKLHEEELRDLQVSVESQ [K7L]	2.37
DEIEFLSKLHEEELRDLQVSVESQ [K7S]	3.85
DEIEFLMKLHEEELRDLQVSVESQ [K7M]	3.07
DEIEFLGKLHEEELRDLQVSVESQ [K7G]	4.52
DEIEFLQKLHEEELRDLQVSVESQ [K7Q]	4.61
DEIEFLIKLHEEELRDLQVSVESQ [K7I]	2.03
DEIEFLNKLHEEELRDLQVSVESQ [K7N]	5.18

Variant	protein stability index
DEIEFLEKLHEEELRDLQVSVESQ [K7E]	4.83
DEIEFLVKLHEEELRDLQVSVESQ [K7V]	2.59
DEIEFLWKLHEEELRDLQVSVESQ [K7W]	1.96
DEIEFLFKLHEEELRDLQVSVESQ [K7F]	2.11
DEIEFLHKLHEEELRDLQVSVESQ [K7H]	4.21
DEIEFLTKLHEEELRDLQVSVESQ [K7T]	3.15
DEIEFLCKLHEEELRDLQVSVESQ [K7C]	2.85
DEIEFLYKLHEEELRDLQVSVESQ [K7Y]	2.42
DEIEFLDKLHEEELRDLQVSVESQ [K7D]	5.06
DEIEFSKKLHEEELRDLQVSVESQ [L6S]	5.12
DEIEFTKKLHEEELRDLQVSVESQ [L6T]	5.13
DEIEFVKKLHEEELRDLQVSVESQ [L6V]	4.46
DEIEFYKKLHEEELRDLQVSVESQ [L6Y]	4.72
DEIEFWKKLHEEELRDLQVSVESQ [L6W]	4.61
DEIEFLKKLHEEEFRDLQVSVESQ [L14F]	4.24
DEIEFLKKLHEEESRDLQVSVESQ [L14S]	5.18
DEIEFLKKLHEEETRDLQVSVESQ [L14T]	5.78
DEIEFLKKLHEEEGRDLQVSVESQ [L14G]	5.14
DEIEFLKKLHEEEKRDLQVSVESQ [L14K]	4.92
DEIEFLKKLHEEEVRDLQVSVESQ [L14V]	5.27
DEIEFLKKLHEEEMRDLQVSVESQ [L14M]	5.02
DEIEFLKKLHEEEPRDLQVSVESQ [L14P]	4.71
DEIEFLKKLHEEEYRDLQVSVESQ [L14Y]	4.6
DEIEFLKKLHEEEDRDLQVSVESQ [L14D]	5.57

Variant	protein stability index
DEIEFLKKLHEEEERDLQVSVESQ [L14E]	4.85
DEIEFLKKLHEEECRDLQVSVESQ [L14C]	5.18
DEIEFLKKLHEEEWRDLQVSVESQ [L14W]	4.38
DEIEFLKKLHEEEQRDLQVSVESQ [L14Q]	4.84
DEIEFLKKLHEEEIRDLQVSVESQ [L14I]	4.66
DEIEFLKKLHEEEHRDLQVSVESQ [L14H]	5.31
DEIEFLKKLHEEEARDLQVSVESQ [L14A]	4.95
DEIEFLKKLHEEENRDLQVSVESQ [L14N]	5.08
DEIEFLKKLHEEERRDLQVSVESQ [L14R]	5.22
DEIEFLKKLHEEELRLLQVSVESQ [D16L]	2.97
DEIEFLKKLHEEELRILQVSVESQ [D16I]	3.82
DEIEFLKKLHEEELRQLQVSVESQ [D16Q]	4.35
DEIEFLKKLHEEELRHLQVSVESQ [D16H]	4.67
DEIEFLKKLHEEELRPLQVSVESQ [D16P]	4.59
DEIEFLKKLHEEELRKLQVSVESQ [D16K]	4.94
DEIEFLKKLHEEELRELQVSVESQ [D16E]	4.31
DEIEFLKKLHEEELRALQVSVESQ [D16A]	4.6
DEIEFLKKLHEEELRFLQVSVESQ [D16F]	3.1
DEIEFLKKLHEEELRGLQVSVESQ [D16G]	4.95
DEIEFLKKLHEEELRNLQVSVESQ [D16N]	4.2
DEIEFLKKLHEEELRCLQVSVESQ [D16C]	4.28
DEIEFLKKLHEEELRMLQVSVESQ [D16M]	3.9
DEIEFLKKAHEEELRDLQVSVESQ [L9A]	5.02
DEIEFLKKCHEEELRDLQVSVESQ [L9C]	4.9

Variant	protein stability index
DEIEFLKKHHEEELRDLQVSVESQ [L9H]	5.29
DEIEFLKKMHEEELRDLQVSVESQ [L9M]	4.82
DEIEFLKKFHEEELRDLQVSVESQ [L9F]	4.65
DEIEFLKKVHEEELRDLQVSVESQ [L9V]	5.01
DEIEFLKKSHEEELRDLQVSVESQ [L9S]	5.4
DEIEFLKKRHEEELRDLQVSVESQ [L9R]	5.29
DEIEFLKKTHEEELRDLQVSVESQ [L9T]	5.3
DEIEFLKKYHEEELRDLQVSVESQ [L9Y]	4.44
DEIEFLKKWHEEELRDLQVSVESQ [L9W]	4.38
DEIEFLKKNHEEELRDLQVSVESQ [L9N]	5.34
DEIEFLKKEHEEELRDLQVSVESQ [L9E]	5.05
DEIEFLKKGHEEELRDLQVSVESQ [L9G]	5.58
DEIEFLKKIHEEELRDLQVSVESQ [L9I]	4.88
DEIEFLKKKHEEELRDLQVSVESQ [L9K]	5.49
DEIEFLKKDHEEELRDLQVSVESQ [L9D]	5.27
DEIEFLKKPHEEELRDLQVSVESQ [L9P]	5.52
DEIEFLKKQHEEELRDLQVSVESQ [L9Q]	4.98
DEIEFLKKLHEESLRDLQVSVESQ [E13S]	4.16
DEIEFLKKLHEEALRDLQVSVESQ [E13A]	3.9
DEIEFLKKLHEEVLRDLQVSVESQ [E13V]	3.73
DEIEFLKKLHEEMLRDLQVSVESQ [E13M]	3.46
DEIEFLKKLHEEILRDLQVSVESQ [E13I]	2.74
DEIEFLKKLHEELLRDLQVSVESQ [E13L]	3.27
DEIEFLKKLHEEGLRDLQVSVESQ [E13G]	4.83

Variant	protein stability index
DEIEFLKKLHEEQLRDLQVSVESQ [E13Q]	4.65
DEIEFLKKLHEENLRDLQVSVESQ [E13N]	4.97
DEIEFLKKLHEETLRDLQVSVESQ [E13T]	4.05
DEIEFLKKLHEECLRDLQVSVESQ [E13C]	3.59
DEIEFLKKLHEEFLRDLQVSVESQ [E13F]	2.85
DEIEFLKKLHEEPLRDLQVSVESQ [E13P]	5.05
DEIEFLKKLHEERLRDLQVSVESQ [E13R]	4.42
DEIEFLKKLHEEKLRDLQVSVESQ [E13K]	5.25
DEIEFLKKLHEEYLRDLQVSVESQ [E13Y]	3.95
DEIEFLKKLHEEDLRDLQVSVESQ [E13D]	4.97
DEIEFLKKLHEEHLRDLQVSVESQ [E13H]	4.45
DEIEFLKKLHEDELRDLQVSVESQ [E12D]	4.41
DEIEFLKKLHEQELRDLQVSVESQ [E12Q]	4.53
DEIEFLKKLHEMELRDLQVSVESQ [E12M]	4.33
DEIEFLKKLHECELRDLQVSVESQ [E12C]	4.54
DEIEFLKKLHETELRDLQVSVESQ [E12T]	4.43
DEIEFLKKLHEHELRDLQVSVESQ [E12H]	4.64
DEIEFLKKLHEIELRDLQVSVESQ [E12I]	4.05
DEIEFLKKLHEGELRDLQVSVESQ [E12G]	4.19
DEIEFLKKLHEYELRDLQVSVESQ [E12Y]	4.07
DEIEFLKKLHEAELRDLQVSVESQ [E12A]	4.69
DEIEFLKKLHENELRDLQVSVESQ [E12N]	4.5
DEIEFLKKLHEWELRDLQVSVESQ [E12W]	4.12
DEIEFLKKLHEPELRDLQVSVESQ [E12P]	4.77

Variant	protein stability index
DEIEFLKKLHEFELRDLQVSVESQ [E12F]	4.07
DEIEFLKKLHEKELRDLQVSVESQ [E12K]	4.82
DEIEFLKKLHEVELRDLQVSVESQ [E12V]	4.1
DEIEFLKKLHESELRDLQVSVESQ [E12S]	4.67
DEIEFLKKLHELELRDLQVSVESQ [E12L]	4.04
DEIEFLKKLHERELRDLQVSVESQ [E12R]	4.8
DEIEFLKKLHVEELRDLQVSVESQ [E11V]	3.99
DEIEFLKKLHCEELRDLQVSVESQ [E11C]	4.09
DEIEFLKKLHIEELRDLQVSVESQ [E11I]	4.01
DEIEFLKKLHAEELRDLQVSVESQ [E11A]	4.29
DEIEFLKKLHFEELRDLQVSVESQ [E11F]	3.69
DEIEFLKKLHWEELRDLQVSVESQ [E11W]	3.21
DEIEFLKKLHREELRDLQVSVESQ [E11R]	4.23
DEIEFLKKLHNEELRDLQVSVESQ [E11N]	4.57
DEIEFLKKLHYEELRDLQVSVESQ [E11Y]	2.95
DEIEFLKKLHKEELRDLQVSVESQ [E11K]	4.92
DEIEFLKKLHMEELRDLQVSVESQ [E11M]	3.99
DEIEFLKKLHQEELRDLQVSVESQ [E11Q]	4.08
DEIEFLKKLHHEELRDLQVSVESQ [E11H]	4.42
DEIEFLKKLHLEELRDLQVSVESQ [E11L]	4.11
DEIEFLKKLHGEELRDLQVSVESQ [E11G]	4.95
DEIEFLKKLHDEELRDLQVSVESQ [E11D]	4.94
DEIEFLKKLHPEELRDLQVSVESQ [E11P]	4.34
DEIEFLKKLHSEELRDLQVSVESQ [E11S]	4.52

Variant	protein stability index
DEIEFLKKLHTEELRDLQVSVESQ [E11T]	4.46
DEIEFLKNLHEEELRDLQVSVESQ [K8N]	4.84
DEIEFLKCLHEEELRDLQVSVESQ [K8C]	3.8
DEIEFLKTLHEEELRDLQVSVESQ [K8T]	4.78
DEIEFLKPLHEEELRDLQVSVESQ [K8P]	5.23
DEIEFLKFLHEEELRDLQVSVESQ [K8F]	3.94
DEIEFLKSLHEEELRDLQVSVESQ [K8S]	4.15
DEIEFLKQLHEEELRDLQVSVESQ [K8Q]	4.98
DEIEFLKRLHEEELRDLQVSVESQ [K8R]	4.61
DEIEFLKGLHEEELRDLQVSVESQ [K8G]	4.55
DEIEFLKWLHEEELRDLQVSVESQ [K8W]	3.45
DEIEFLKILHEEELRDLQVSVESQ [K8I]	4.35
DEIEFLKVLHEEELRDLQVSVESQ [K8V]	4.06
DEIEFLKALHEEELRDLQVSVESQ [K8A]	5.1
DEIEFLKHLHEEELRDLQVSVESQ [K8H]	4.63
DEIEFLKLLHEEELRDLQVSVESQ [K8L]	4.32
DEIEFLKYLHEEELRDLQVSVESQ [K8Y]	4.23
DEIEFLKMLHEEELRDLQVSVESQ [K8M]	4.25
DEIEFLKDLHEEELRDLQVSVESQ [K8D]	4.89
DEIEFLKELHEEELRDLQVSVESQ [K8E]	4.37
